Source: patent US20090004183A1 (published 2009)

Molecular target: T1, C3b deposited on zymosan or Sepharose 4B (human, UniProt P01024 23-667; P01024 749-1663, limits assumed, covalently deposited on zymosan A or Sepharose 4B by opsonization in normal human serum)
T1 construct: The whole C3 entry is named; The deposit may include iC3b; also called C3b-opsonized zymosan; C3b-zymosan
Assay: flow cytometry on zymosan opsonized in 50% NHS
Procedure: After 30 minutes, the reactions were quenched with EDTA, washed and samples without the mAbs were probed with the respective A1488 mAbs.

T1 sequence (P01024 23-667 limits assumed, chain 1 of 2): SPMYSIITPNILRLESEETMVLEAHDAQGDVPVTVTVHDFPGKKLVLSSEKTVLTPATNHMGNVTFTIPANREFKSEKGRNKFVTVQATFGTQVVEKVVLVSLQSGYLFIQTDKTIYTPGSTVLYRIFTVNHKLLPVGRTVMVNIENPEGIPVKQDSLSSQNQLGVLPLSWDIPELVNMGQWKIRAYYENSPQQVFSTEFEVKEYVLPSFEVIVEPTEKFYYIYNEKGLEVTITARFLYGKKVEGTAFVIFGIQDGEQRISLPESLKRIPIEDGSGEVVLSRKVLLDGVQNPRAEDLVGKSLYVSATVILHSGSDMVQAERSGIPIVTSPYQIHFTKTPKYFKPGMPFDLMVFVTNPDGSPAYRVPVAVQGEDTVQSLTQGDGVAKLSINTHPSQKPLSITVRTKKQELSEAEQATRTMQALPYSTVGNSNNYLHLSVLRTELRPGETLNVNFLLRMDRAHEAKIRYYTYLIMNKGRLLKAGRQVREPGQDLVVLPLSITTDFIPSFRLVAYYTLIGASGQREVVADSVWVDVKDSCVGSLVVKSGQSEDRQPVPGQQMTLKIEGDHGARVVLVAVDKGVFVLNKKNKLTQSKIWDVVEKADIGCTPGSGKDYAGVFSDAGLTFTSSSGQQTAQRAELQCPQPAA
T1 sequence (P01024 749-1663 limits assumed, chain 2 of 2): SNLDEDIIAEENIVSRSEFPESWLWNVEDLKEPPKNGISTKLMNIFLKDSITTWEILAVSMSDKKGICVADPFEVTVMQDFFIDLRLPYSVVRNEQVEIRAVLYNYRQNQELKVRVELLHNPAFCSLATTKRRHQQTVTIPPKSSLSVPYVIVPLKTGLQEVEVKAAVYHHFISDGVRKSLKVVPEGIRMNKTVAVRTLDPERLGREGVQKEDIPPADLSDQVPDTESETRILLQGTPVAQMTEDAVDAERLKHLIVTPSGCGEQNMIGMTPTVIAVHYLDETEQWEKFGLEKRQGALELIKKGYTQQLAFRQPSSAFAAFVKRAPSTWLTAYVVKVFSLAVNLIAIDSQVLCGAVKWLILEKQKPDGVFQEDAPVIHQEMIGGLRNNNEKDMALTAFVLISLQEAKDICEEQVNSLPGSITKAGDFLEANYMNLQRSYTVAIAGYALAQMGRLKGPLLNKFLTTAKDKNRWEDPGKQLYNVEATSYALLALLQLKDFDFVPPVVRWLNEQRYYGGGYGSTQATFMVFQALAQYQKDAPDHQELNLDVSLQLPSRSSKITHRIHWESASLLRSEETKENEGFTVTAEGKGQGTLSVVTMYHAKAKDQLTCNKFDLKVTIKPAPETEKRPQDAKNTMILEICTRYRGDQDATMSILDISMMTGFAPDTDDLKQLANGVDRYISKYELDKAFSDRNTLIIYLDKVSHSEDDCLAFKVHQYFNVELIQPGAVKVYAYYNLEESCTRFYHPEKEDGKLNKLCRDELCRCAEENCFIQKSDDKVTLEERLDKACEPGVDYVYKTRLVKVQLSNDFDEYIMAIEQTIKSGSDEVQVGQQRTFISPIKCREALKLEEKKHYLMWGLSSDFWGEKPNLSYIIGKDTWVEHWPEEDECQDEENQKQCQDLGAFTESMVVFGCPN

B1: mAb H17 (antibody, V domains shown)
VH: EVQLQESGPSLVKPSQTLSLTCTVSGDSITSDYWNWIRQAPGKGLESMGYITYSGTTYYNPSLKSRVTISRDTSKNQYYMELSSLRSEDTATYYCARGVDYEPSYYFDYWGQGTLVTVSS
VL: DIQMTQSPSSLSASVGDRVTITCSASQGISNYLNWYQQKPGKAPKLLIYYTSSLHSGVPSRFSGSGSGTDYSLTISSLQPEDIATYYCQQYSNLPWTFGQGTKVEIK
notes: It is a chimeric, de-immunized form of 3E7 with human gamma1 and kappa constant regions, expressed in NS0 cells; also called H117; deimmunized chimeric 3E7
**Q.** For B1, which “fold increase in binding (probe added after opsonization versus present from the start)” value is on record?
**A.** 200 fold

B2: mAb 3E7 (antibody, mouse IgG1, V domains shown)
VH: EVQLQESGPSLVKPSQTLSLTCSVTGDSITSDYWNWIRKFPGNKLESMGYITYSGTTYYNPSLKSRISITRDTSKNQYYLQLNSVTSEDTATYYCARGVDYEPSYYFDYWGQGTTLTVSS
VL: DIQMTQTTSSLSASLGDRVTISCSASQGISNYLNWYQQKPDGTVKLLIYYTSSLHSGVPSRFSGSGSGTDYSLTISNLEPEDIATYYCQQYSNLPWTFGGGTKLEIK
notes: also called mouse IgG1 mAb 3E7; A1488 mAb 3E7
**Q.** B2 was tested. Which “fold increase in binding (probe added after opsonization versus present from the start)” value did it give?
**A.** 200 fold
